Data on one molecule can be found in publication PMC10341166, “The Src-Family Kinases SRC and BLK Contribute to the CLDN6-Adhesion Signaling” (Cells, 2023).

The target in assay [1] is T1, recGST-SRC (full-length recombinant SRC, Sf9) (mouse, UniProt P05480 1-535).
T1 construct: proto-oncogene tyrosine-protein kinase SRC, mouse, full-length; Src-FLAG subcloned into plEx/Bac-4; also called recSRC; source: Sf9 insect cells, transfected, purified (GST-tagged protein purification kit)
As to the kind of experiment: pull-down; GST pull-down: 10 µg recGST, recBLK-FLAG or recSRC bound to Glutathione-Superflow Resin, incubated with 3 µg recCLDN6C for 1 h at room temperature; washed five times in 140 mM NaCl, 10 mM Na2HPO4, 1.8 mM KH2PO4, pH 7.5; immunoblot. As to conditions: both partners purified.

Assay [2] deals with T2, recGST-BLK (full-length recombinant BLK, Sf9) (mouse, UniProt P16277 1-499).
T2 construct: tyrosine-protein kinase BLK, mouse, full-length; Blk-FLAG subcloned into plEx/Bac-4; also called recBLK; recBLK-FLAG; source: Sf9 insect cells, transfected, purified (GST-tagged protein purification kit)
T2 sequence (P16277 whole entry): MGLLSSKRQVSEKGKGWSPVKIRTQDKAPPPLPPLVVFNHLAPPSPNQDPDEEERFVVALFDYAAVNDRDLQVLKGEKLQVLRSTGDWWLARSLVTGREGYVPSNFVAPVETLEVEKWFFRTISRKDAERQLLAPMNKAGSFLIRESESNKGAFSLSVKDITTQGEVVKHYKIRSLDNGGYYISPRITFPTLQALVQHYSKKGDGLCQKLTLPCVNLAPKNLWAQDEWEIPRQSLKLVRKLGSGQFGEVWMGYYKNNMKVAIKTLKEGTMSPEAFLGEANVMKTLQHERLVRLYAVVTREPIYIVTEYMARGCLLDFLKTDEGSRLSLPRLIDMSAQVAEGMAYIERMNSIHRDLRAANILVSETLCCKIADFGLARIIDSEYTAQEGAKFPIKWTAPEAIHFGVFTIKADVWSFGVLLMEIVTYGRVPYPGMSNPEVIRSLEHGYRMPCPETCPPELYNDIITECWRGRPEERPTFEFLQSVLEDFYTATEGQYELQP
Described as above. As to conditions: both partners purified.

B1: recCLDN6C (recombinant C-terminal cytoplasmic domain of CLDN6, C185-V219) (domain or fragment, mouse, UniProt Q9Z262 185-219, looked up)
chain: CSSGGTQGPRHYMACYSTSVPHSRGPSEYPTKNYV
notes: claudin-6 (CLDN6), mouse, C-terminus C185-V219; source: recombinant, from plEx/Bac-4
Turning to B1, the binding result in assay [1] and in assay [2] was “binds” each time.
